Source: IntAct's records for PubMed 11739401

B1: Ras-related protein Rab-2A (Homo sapiens), P61019 (parent)
chain: MAYAYLFKYIIIGDTGVGKSCLLLQFTDKRFQPVHDLTIGVEFGARMITIDGKQIKLQIWDTAGQESFRSITRSYYRGAAGALLVYDITRRDTFNHLTTWLEDARQHSNSNMVIMLIGNKSDLESRREVKKEEGEAFAREHGLIFMETSAKTASNVEEAFINTAKEIYEKIQEGVFDINNEANGIKIGPQHAATNATHAGNQGGQQAGGGCC
partner: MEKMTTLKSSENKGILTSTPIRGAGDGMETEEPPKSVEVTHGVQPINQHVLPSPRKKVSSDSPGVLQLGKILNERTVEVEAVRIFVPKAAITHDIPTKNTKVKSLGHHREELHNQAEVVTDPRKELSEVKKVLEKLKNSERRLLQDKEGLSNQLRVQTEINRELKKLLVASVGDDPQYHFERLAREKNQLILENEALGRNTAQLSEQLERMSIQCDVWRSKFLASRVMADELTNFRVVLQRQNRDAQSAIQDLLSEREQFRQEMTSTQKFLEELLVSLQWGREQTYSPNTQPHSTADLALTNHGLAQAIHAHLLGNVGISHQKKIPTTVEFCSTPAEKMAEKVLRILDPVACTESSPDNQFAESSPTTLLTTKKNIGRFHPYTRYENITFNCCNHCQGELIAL

Variants of: B1
Conditions: with go45_mouse Blzf1, Q8R2X8

effect of a mutation on the interaction	Variant
increasing interaction	Q65L
